Data: patent US20160017348A1

Biological target: H3K4AK9me2 peptide (UniProt P59226)
Assay: ITC; reference is the H3K9me2 peptide

fold weaker affinity than with the H3K9me2 peptide: 30 fold
B1: SHH1 SAWADEE domain (residues 125-258) (protein)
chain: ADLAFEAKSARDYAWYDVSSFLTYRVLRTGELEVRVRFSGFDNRHDEWVNVKTSVRERSIPVEPSECGRVNVGDLLLCFQEREDQALYCDGHVLNIKRGIHDHARCNCVFLVRYELDNTEESLGLERICRRPEE
